Among the data in PMC3813734, “Biochemical Characterization of a First Fungal Esterase from Rhizomucor miehei Showing High Efficiency of Ester Synthesis” (PLoS ONE, 2013) are Km and kcat/Km values, retold here.

Holding throughout (test): purified protein
Assay type in all cases: biochemical, Rhizomucor miehei
Holding throughout (conditions): 50 mM sodium phosphate pH 6.5, 45 °C, 5 min

Substrate in data set [1]: CCCCCCCCCCCC(=O)Oc1ccc([N+](=O)[O-])cc1
Substrate in data set [2]: CCCC(=O)Oc1ccc([N+](=O)[O-])cc1
Substrate in data set [3]: CCCCCC(=O)Oc1ccc([N+](=O)[O-])cc1
Substrate in data set [4]: CCCCCCCC(=O)Oc1ccc([N+](=O)[O-])cc1
Substrate in data set [5]: CC(=O)Oc1ccc([N+](=O)[O-])cc1
Substrate in data set [6]: CCCCCCCCCC(=O)Oc1ccc([N+](=O)[O-])cc1

A word on the Km: it is the concentration of substrate that gives half-maximal velocity. By kcat/Km is commonly meant the turnover number divided by the Michaelis constant.

B1: RmEstA (Rhizomucor miehei) (protein)
chain: MTVGNPPIHPVYAAAFAAMKERPPIHTLDLKVVRESSEARQLAANIKLPEVIEEDKVVESDGKTLKLTIVRPPGTEDQILPVLIFLHGGGFVFGSKYTHIKPVRDLTVKANVVTVFVDYSLSPEAKFPTAIEEIYAAILWVRENASSLNINAEALAVAGDSAGATLSAAVSIYAKEKGLSAAIKTQVLIYPATAVSHAKYESYKLFGNGDYILSAEDLKFFSNAYLPAPASELNDKLATLELATKADLEGLPPALLFTAESDVLRDEGEKYAQQLAEAGVDVAAVRVLGAVHGFITVPVETPQYRFTINTIVAHLRDIYAKYNA
notes: full-length ORF, 324 residues, no signal peptide predicted; C-terminal His tag (pET-30a(+), NdeI/XhoI); E. coli BL21(DE3); Ni-IDA; 34,989 Da calculated, 34 kDa SDS-PAGE
For the protein B1, the Km in “purified protein [1]” came out at 300 µM; in the data set “purified protein [2]”, 170 µM; in “purified protein [3]” it was 120 µM; in the data set “purified protein [4]” it was 820 µM; in “purified protein [5]”, 1000 µM; in “purified protein [6]” it was 280 µM. Besides, the kcat/Km in the data set “purified protein [1]” stood at 60 M⁻¹ s⁻¹; in the data set “purified protein [2]” it was 6900 M⁻¹ s⁻¹; in “purified protein [3]”, 8970 M⁻¹ s⁻¹; in the data set “purified protein [4]”, 510 M⁻¹ s⁻¹; in the data set “purified protein [5]”, 370 M⁻¹ s⁻¹; in “purified protein [6]”, 130 M⁻¹ s⁻¹.
